From the DeepSol protein solubility set

assay: soluble on expression in E. coli; label from the status in PepcDB or PDB records

| Sequence | soluble on expression in E. coli |
| --- | --- |
| MLSLATFFITMTTHRKPSQEQGFLNGQFLLAMPGMSDERFARSVVYICAHSDEGAMGFIINQLQPVQFPDLLRQIGVIGEEDLIILPDRAQHMVVRNGGPVDRTRGFVLHSDDYMVDSTMPVSDDVCLTATVDILRAIYGGGGPERALMALGYSGWAPGQLEMEVAENGWLTCDAPLDMLFDSDIEGKYSRLMLHMGIDMSRLVSDAGHAAADPLEHHHHHH | not soluble |
| MAHHHHHHMALISQSFAERYAELVARVPTHTELLLDVQRREVGERKALEEMCQVAFQDVLHVAGVMIADKKALGRGALAHRNRFEVALYKKQTAVWFQAAPPRKVALPTTRPLHGFPHAAFAELCQEERELRQWHYGVERRLREHIEEACGRAWFFLNVINETARSESLSRQRLQHEEDEDFTAIKQSFFRAVPADYYRNVVIARYGQTISAIEQAKDLTFEELEEKVRAALMEEEEASWRSAYQYLQDMYDAQLFALNHREVLGRYELEEEERNTLFPLILQCCREDFGIVFYHIPALALHFNSSQPCLRALCVAQLQEAPRRMAATRSRFSWIPAFDLAGMASELGLEEDGDEIEDSAEGETQEAEGSTDGGDDLHNALPPPVDDMPPINTASTMVFEPEVGSSKVPEPETKREEAEVDTSQSAVVALAQRTHEESVLATEMEEHVPVSCAGEENE | soluble |
| MIVPYSVEDILKDGCFLERAEIDRLLDRLRTKKNLILQGPPGTGKTWLAKRLAFALMGQKDDSKVRAVQFHPNLSYEDFVRGWRPTGEGKLSLADGVFMEAIKAASKDPSSKFVVVIEEINRGNPAQIFGELLTLLEAGKRTPNEALELCYPDADGKRRPVHIPENLYVVGTMNIADRSLALVDLALRRRFAFVGLEPRLGQVWRDWVVKECAVDPLEHHHHHH | not soluble |
| MNLIEKTREFAATFHEGEPSSHDMSHINRVEALCMEIQKEEGGDLLILSLAALLHDVGVIKEHEEGGDHALYSSEIAIEFLSRAGVEMKTIEAVAYCIQTHRFSGGKRPETVEARILQDADRLDALGAIGIFRSILSMGALRMLKHTTGLDKGSSKKTVYIEDPVEGFNEYMRYKPFTIPERLNTVTAKRIAGERLKIMHIYLEALNLEAGNGKHKPLEHHHHHH | soluble |
| GSAAATGPSFWLGNETLKVPLALFALNRQRLCERLRKNPAVQAGSIVVLQGGEETQRYCTDTGVLFRQESFFHWAFGVTEPGCYGVIDVDTGKSTLFVPRLPASHATWMGKIHSKEHFKEKYAVDDVQYVDEIASVLTSQKPSVLLTLRGVNTDSGSVCREASFDGISKFEVNNTILHPEIVECRVFKTDMELEVLRYTNKISSEAHREVMKAVKVGMKEYELESLFEHYCYSRGGMRHSSYTCICGSGENSAVLHYGHAGAPNDRTIQNGDMCLFDMGGEYYCFASDITCSFPANGKFTADQKAVYEAVLRSSRAVMGAMKPGVWWPDMHRLADRIHLEELAHMGILSGSVDAMVQAHLGAVFMPHGLGHFLGIDVHDVGGYPEGVERIDEPGLRSLRTARHLQPGMVLTVEPGIYFIDHLLDEALADPARASFFNREVLQRFRGFGGVRIEEDVVVTDSGIELLTCVPRTVEEIEACMAGCDKAFTPFSGPK | soluble |
| MKYVASFSGGKDSAAMLLLILEKRLLLDEIVFIDTGLEFKEIYDIIDDFEKRINFKITRIKAEKTFEEYFYTVNKQGKRKGQIWGFPYTLGAWCNSRLKLAPANKYFNSIGEHKRYIGIAFDEPSRYRRLEKNCIAPLYEAKMTEKDCLKYLEKKGFYYDIHHRFKRTGCY | not soluble |
| MEVSHVTLEPNKDSRPAVLTIGKFDGVHLGHQTILNTALSIKKENEILTAISFSPHPLWALKQIEIYREMLTPRMEKERWLAHYGVDHLIETAFTPRYAETTPEEFVTDHLSNLQLSHIIVGSEFNFGKGRDSDVDLLRDLCKPYGIGVTSVPVIETNQTKISSTNIRAFIRRGHFLEAEQLLGHP | not soluble |
| MGSDKIHHHHHHMKGMDIMNSAMILEISWFQEHGIMRRAVNRGLARKSSHPSRIGIDEKYYGKHHRYITLVFNHDDHSVEFISLDRKQESLDLYYRSIGEEASGSIEAAPMDMWDPFIVSTKSNVTDAESKIVFDRFHVMKHMNMALDDVRWMESRMAEYKEMFRKTRCLWLYSPENLPDKYGERYEILKESDLKTARVYAIKENLRNLWNCSGEDEARSF | not soluble |
| MVKSLQLAHQLKDKKILLIGGGEVGLTRLYKLIPTGCKLTLVSPDLHKSIIPKFGKFIQNEDQPDYREDAKRFINPNWDPTKNEIYEYIRSDFKDEYLDLEDENDAWYIIMTCIPDHPESARIYHLCKERFGKQQLVNVADKPDLCDFYFGANLEIGDRLQILISTNGLSPRFGALVRDEIRNLFTQMGDLALEDAVVKLGELRRGIRLLAPDDKDVKYRMDWARRCTDLFGIQHCHNIDVKRLLDLFKVMFQEQNCSLQFPPRERLLSEYCSS | not soluble |
| MNQYQKTTERKKQAIIQAALHLFKEKGFKGTSIKSIAKAAQVSPVSIYNYFESKESLVDLCVNKLFEEITQEAENILTSEIDFKMKLCQALALCQKKMSHQISVYFKEKTIKDPTFSKLLTKAIVAKKREIYRSYIKLGKDEGVIAKDLSTELILNVMDALNSIGNQLSESENLGEEIEQIHRLFLYGIFGKI | not soluble |
| MQFLQKFPPFNQMENAHLAYLVEQCQLRFYAADESIIKPGDGPVEHFYIVKQGRIVGERPHSAKRGTETTFEITTGECFPLAALLGERATRTEHLAAEDTFCLQLNKQAFIKLFALSTTFRDFALRGVSSLLDQVNQQVQQRAAETLGTQYSLNTRLGELAMRHPVMCSPDMPMRDAVKLMHEQQVGSIVIVDEQQAPLGIFTLRDLREAVADVNADFSAPVKNTMSPSPFHLSPDASAFDAAIAMTGRHIAHVCLVRDGRLCGVVSERDLFSLQRVDLVHLARTIRNAPRIEALAGLRGDIVQLVDRMLAHGASSTQITQIITLLNDHTVCRVIELTLAEKGDPGVPFSWLCFGSEGRREQTLHTDQDNGILFEASDATEAEQIRTLLLPIAERINQSLAQCGFTLCKGNIMAGNPDLCLSRLEWSRRFSAFIREATPENLLASSIYFDLRVVWGDESGGGQLRRGILDQVADNRLFQRMMAENALRQRPPVGRFKDFVLARKGSEKDTLDLKTEGLTPFVDGARLLALANGIGVNNTQERLRQLVEREVIDPLDGAAYEEAYHFIQQTRMQQHQLQSRQNLAYSNRIDPDTLNHLDRRILRESFRQAQRLQMSLTMRYQL | not soluble |
| MAHHHHHHMPIIESDLLSLAYKAALSALLSEEIYNFGKFLNERHFTERLADSVQHAWILEWLRLCNDGKVEEFEQYAVAHKAEMAASPILSESFPSITKKVRLMALLHLVFYTPFNERTFTFDVIARRCAVDEERVEPLLLAALAQGIIMGKIDGLTQEVHITWVEPRVLSLQEVKELAVHVSRWKEKTLGLMQCMKEAAQETHN | not soluble |
| MKKGLKMRALERSDLRFIHELNNNRNIMAYWFEEPYESYDELEELYRKHIHDDAERRFVVEDADGILIGLVELIEINYIHRSAEFQII | not soluble |
| MGSDKIHHHHHHMPGLPRASGSRFSRRLWSNLTWSGLLSMAVMPRHTSIARPPHGMMDPSGTTVWSYDTQGRIIGKTQVVDGASLVTSYVYDGDGRLASLTYPSGEVINYSWSNGQLTGIFRGTSLIASGITCHPFGPVKSWTLDNGQNIVRNFDLDGRITSYSLGSLAYDAASRITGISRGGISILGNSKTYGYDATDRLISFSDGTSAETYAYDASGNRTGQTINGMAYTYSVSYASNRLDAMAGPGSSLHYSYDANGSLVNDGQRSFGYDASGRLSEAVGLASYSFNGLGQRVKKNAGTVIMFVFDEGGQLIGEYGAAGNPIQETVWLDDVPLAVLRYGTTYYIHTDHLNTPPADS | not soluble |
| MSLLWKKAQEETHDYIIRKADPSDAAGIISCMQSVMDERIYLVGEYYLLSERAEQERIKSLDDLTLVCVIDRKVVGVLTVQRGIYRKNRHTGMLGIAIMAGHRHKGLGTRMIKEAILWCEDQGIKKLNLEVFSTNVNAIKTYEKVGFEVEGKRRKQFLIDGQYVDDVLMTYYVDKSLKEEGHHHHHH | soluble |
| MGSDKIHHHHHHMPRVIKHPEIRREDILDHAQALFLTQGYDRASLNDVIASAGISKGAFYHYFASKEALLEALADRFARQALAGVQGVVDDPGLDPLGRLNGLLSQSRQAKIETAAEAWALFETMFRPENLVLFHRINLAANASFSPLLVKIIRQGVEDGTFRTFDPEGVADIVMQFGLATHDVVAKAIAGGSDADMEVAIEVLEKRVRLYEIALDRILGLPDGSIRIGEPGYIRAVMTARRKADKAR | not soluble |
| MAVTAQAARRKERVLCLFDVDGTLTPARQKIDPEVAAFLQKLRSRVQIGVVGGSDYCKIAEQLGDGDEVIEKFDYVFAENGTVQYKHGRLLSKQTIQNHLGEELLQDLINFCLSYMALLRLPKKRGTFIEFRNGMLNISPIGRSCTLEERIEFSELDKKEKIREKFVEALKTEFAGKGLRFSRGGMISFDVFPEGWDKRYCLDSLDQDSFDTIHFFGNETSPGGNDFEIFADPRTVGHSVVSPQDTVQRCREIFFPETAHEA | soluble |
| MGSDKIHHHHHHMAHLSYSPPRNFDALYRQRVFQSHQAVRMHDAAARELADHSLTWRSGNVDAALYKARARRLTLFSFRYGAEVEIAPRPSEEFIVVHHSIRGAAELSVDGQHMVLPQGRTGWMAPRRNWRMRWEAGCEQLILKIPRDMIEAGGIAPMAPLATLPAGLDTQWLLLVQVLLGASSAPTCAGEPAAWVEHIEQGLASLLRAASSCSLPRESSDRNFVARDPIARLQAMEDYMRERLGAPIGLADLSGAAGVSARVLQQTCQRHRQMSPMELLRDMRLDAVHAWLSEHPSANITETALFYGFGHLGRFAAYYRQRFGESPHQTAQRRCCALS | not soluble |
| MGSDKIHHHHHHMNRLGKALPPLASLMPFEAAARLESFSRAADELHLTQAAISRQIRALEDDLGVALFERRNRGVFLTAAGREFGRTVSAALEGIAAQANALRQEVHDGVVVLFCQLCEAFYWVMPRLASLNRRHPELEVRLVTSTRPVVEHHDYFDVALQTSGRPSGSHALAFTASDEIFPICSPGYLAAQPRPITLASLPEHCLLHHEADPPDWFEWDSWLRAMGNFAPALGNGMVFDSYPLVLQAALAGHGIALGWRRSAEHLIQSGQLVRPLSMSLPLDNALSVYTRHGAQPRAETLALLDWLQREFRRDDQTTPA | not soluble |
| MSLARTPNGGAIACSDAAALGKDELFWGALFRGLNRGGSFLQLQIRQIIVTAIEDGRLPLGMKMPSSRDLATVLKVSRNTVVIAYEQLVDQNFLVSRQRSGYFVAGLPKKFATEAPGLAEVTSRGDEHWVDRFAVRPSAHRNIVKPLDWQTHPYPFIFGQFDPSLFPTNDWRESARAALSVPEINNWARDLIDGDDPALIEQLQLQVLPRRGIHARADEIMMTIGAQHALYLIATLFINGQTKVGIEEPGYPDARNIFRMLTPNVVPLSVDSEGVVPDAMFQSCALAYVTSSHQCPTAVTMPLPRRIELLKAAATGDVVVVEDDYEGELMPESATLPPLKSIDRASNVLYVGSLSKALAPGLRLGYVVAPAPVIRELRALRRLMLRHPPLNNQRVAALFIGLGHYRAHLAQVGRVLLERAKLLDQLLPKHLPSCSFSRGPGSTNFWVTCPTSIDATALAEAALEQGVVIEPGAVFSMDETASRHCFRLGFSSIRTDRIEVGIQRLGEVIAQHLKAEGHHHHHH | soluble |
| TITEWSVNMYNHLRGTGEDENILFSPLSIALAMGMMELGA | soluble |
| AHHHHHHGSEEKIILFVCVKNSARSQMAEAFFNYYNDDPRFKAMSAGTEPADDIDPLAKKVMEEIGISLEGQKPKLYTPEMADKAYIVITMGCLDKCPYAPPEKTWDWGLEDPYGKPIEKYREVRDEIKRRVLKLIEDLKAGKSREEIIGRKSLFAI | soluble |
